According to the supplement of paper PMC12458215:
± gives the uncertainty stated by the source.

Tested on: HEK293T
Assay: plasma membrane surface immunostaining intensity (anti-HA, deep receptor scanning) (arbitrary fluorescence units); higher = higher plasma membrane expression

| Sequence | plasma membrane surface immunostaining intensity (GPCR class: A) | plasma membrane surface immunostaining intensity (GPCR class: A (Olfactory)) | also measured |
| --- | --- | --- | --- |
| MAETSALPTGFGELEVLAVGMVLLVEALSGLSLNTLTIFSFCKTPELRTPCHLLVLSLALADSGISLNALVAATSSLLRRWPYGSDGCQAHGFQGFVTALASICSSAAIAWGRYHHYCTRSQLAWNSAVSLVLFVWLSSAFWAALPLLGWGHYDYEPLGTCCTLDYSKGDRNFTSFLFTMSFFNFAMPLFITITSYSLMEQKLGKSGHLQVNTTLPARTLLLGWGPYAILYLYAVIADVTSISPKLQMVPALIAKMVPTINAINYALGNEMVCRGIWQCLSPQKREKDRTK [RGR] | 125 ± 16 |  |  |
| MAFLIILITCFVIILATSQPCQTPDDFVAATSPGHIIIGGLFAIHEKMLSSEDSPRRPQIQECVGFEISVFLQTLAMIHSIEMINNSTLLPGVKLGYEIYDTCTEVTVAMAATLRFLSKFNCSRETVEFKCDYSSYMPRVKAVIGSGYSEITMAVSRMLNLQLMPQVGYESTAEILSDKIRFPSFLRTVPSDFHQIKAMAHLIQKSGWNWIGIITTDDDYGRLALNTFIIQAEANNVCIAFKEVLPAFLSDNTIEVRINRTLKKIILEAQVNVIVVFLRQFHVFDLFNKAIEMNINKMWIASDNWSTATKITTIPNVKKIGKVVGFAFRRGNISSFHSFLQNLHLLPSDSHKLLHEYAMHLSACAYVKDTDLSQCIFNHSQRTLAYKANKAIERNFVMRNDFLWDYAEPGLIHSIQLAVFALGYAIRDLCQARDCQNPNAFQPWELLGVLKNVTFTDGWNSFHFDAHGDLNTGYDVVLWKEINGHMTVTKMAEYDLQNDVFIIPDQETKNEFRNLKQIQSKCSKECSPGQMKKTTRSQHICCYECQNCPENHYTNQTDMPHCLLCNNKTHWAPVRSTMCFEKEVEYLNWNDSLAILLLILSLLGIIFVLVVGIIFTRNLNTPVVKSSGGLRVCYVILLCHFLNFASTSFFIGEPQDFTCKTRQTMFGVSFTLCISCILTKSLKILLAFSFDPKLQKFLKCLYRPILIIFTCTGIQVVICTLWLIFAAPTVEVNVSLPRVIILECEEGSILAFGTMLGYIAILAFICFIFAFKGKYENYNEAKFITFGMLIYFIAWITFIPIYATTFGKYVPAVEIIVILISNYGILYCTFIPKCYVIICKQEINTKSAFLKMIYSYSSHSVSSIALSPASLDSMSGNVTMTNPSSSGKSATWQKSKDLQAQAFAHICRENATSVSKTLPRKRMSSI [GPRC6A] |  |  | plasma membrane surface immunostaining intensity (GPCR class: C): 158 ± 24 |
| MAGAPGPLRLALLLLGMVGRAGPRPQGATVSLWETVQKWREYRRQCQRSLTEDPPPATDLFCNRTFDEYACWPDGEPGSFVNVSCPWYLPWASSVPQGHVYRFCTAEGLWLQKDNSSLPWRDLSECEESKRGERSSPEEQLLFLYIIYTVGYALSFSALVIASAILLGFRHLHCTRNYIHLNLFASFILRALSVFIKDAALKWMYSTAAQQHQWDGLLSYQDSLSCRLVFLLMQYCVAANYYWLLVEGVYLYTLLAFSVLSEQWIFRLYVSIGWGVPLLFVVPWGIVKYLYEDEGCWTRNSNMNYWLIIRLPILFAIGVNFLIFVRVICIVVSKLKANLMCKTDIKCRLAKSTLTLIPLLGTHEVIFAFVMDEHARGTLRFIKLFTELSFTSFQGLMVAILYCFVNNEVQLEFRKSWERWRLEHLHIQRDSSMKPLKCPTSSLSSGATAGSSMYTATCQASCS [GLP1R] |  |  | plasma membrane surface immunostaining intensity (GPCR class: B): 560 ± 52 |
| MAGNNFTEVTVFILSGFANHPELQVSLFLMFLFIYLFTVLGNLGLITLIRMDSQLHTPMYFFLSNLAFIDIFYSSTVTPKALVNFQSNRRSISFVGCFVQMYFFVGLVCCECFLLGSMAYNRYIAICNPLLYSVVMSQKVSNWLGVMPYVIGFTSSLISVWVISSLAFCDSSINHFFCDTTALLALSCVDTFGTEMVSFVLAGFTLLSSLLIITVTYIIIISAILRIQSAAGRQKAFSTCASHLMAVTIFYGSLIFTYLQPDNTSSLTQAQVASVFYTIVIPMLNPLIYSLRNKDVKNALLRVIHRKLFP [OR8I2] |  | 189 ± 85 |  |
| MAGVVHVSLAALLLLPMAPAMHSDCIFKKEQAMCLEKIQRANELMGFNDSSPGCPGMWDNITCWKPAHVGEMVLVSCPELFRIFNPDQVWETETIGESDFGDSNSLDLSDMGVVSRNCTEDGWSEPFPHYFDACGFDEYESETGDQDYYYLSVKALYTVGYSTSLVTLTTAMVILCRFRKLHCTRNFIHMNLFVSFMLRAISVFIKDWILYAEQDSNHCFISTVECKAVMVFFHYCVVSNYFWLFIEGLYLFTLLVETFFPERRYFYWYTIIGWGTPTVCVTVWATLRLYFDDTGCWDMNDSTALWWVIKGPVVGSIMVNFVLFIGIIVILVQKLQSPDMGGNESSIYLRLARSTLLLIPLFGIHYTVFAFSPENVSKRERLVFELGLGSFQGFVVAVLYCFLNGEVQAEIKRKWRSWKVNRYFAVDFKHRHPSLASSGVNGGTQLSILSKSSSQIRMSGLPADNLAT [ADCYAP1R1] |  |  | plasma membrane surface immunostaining intensity (GPCR class: B): 6416 ± 29 |
| MALLLVSLLAFLSLGSGCHHRICHCSNRVFLCQESKVTEIPSDLPRNAIELRFVLTKLRVIQKGAFSGFGDLEKIEISQNDVLEVIEADVFSNLPKLHEIRIEKANNLLYINPEAFQNLPNLQYLLISNTGIKHLPDVHKIHSLQKVLLDIQDNINIHTIERNSFVGLSFESVILWLNKNGIQEIHNCAFNGTQLDELNLSDNNNLEELPNDVFHGASGPVILDISRTRIHSLPSYGLENLKKLRARSTYNLKKLPTLEKLVALMEASLTYPSHCCAFANWRRQISELHPICNKSILRQEVDYMTQARGQRSSLAEDNESSYSRGFDMTYTEFDYDLCNEVVDVTCSPKPDAFNPCEDIMGYNILRVLIWFISILAITGNIIVLVILTTSQYKLTVPRFLMCNLAFADLCIGIYLLLIASVDIHTKSQYHNYAIDWQTGAGCDAAGFFTVFASELSVYTLTAITLERWHTITHAMQLDCKVQLRHAASVMVMGWIFAFAAALFPIFGISSYMKVSICLPMDIDSPLSQLYVMSLLVLNVLAFVVICGCYIHIYLTVRNPNIVSSSSDTRIAKRMAMLIFTDFLCMAPISFFAISASLKVPLITVSKAKILLVLFHPINSCANPFLYAIFTKNFRRDFFILLSKCGCYEMQAQIYRTETSSTVHNTHPRNGHCSSAPRVTSGSTYILVPLSHLAQN [FSHR] | 378 ± 44 |  |  |
| MALTPESPSSFPGLAATGSSVPEPPGGPNATLNSSWASPTEPSSLEDLVATGTIGTLLSAMGVVGVVGNAYTLVVTCRSLRAVASMYVYVVNLALADLLYLLSIPFIVATYVTKEWHFGDVGCRVLFGLDFLTMHASIFTLTVMSSERYAAVLRPLDTVQRPKGYRKLLALGTWLLALLLTLPVMLAMRLVRRGPKSLCLPAWGPRAHRAYLTLLFATSIAGPGLLIGLLYARLARAYRRSQRASFKRARRPGARALRLVLGIVLLFWACFLPFWLWQLLAQYHQAPLAPRTARIVNYLTTCLTYGNSCANPFLYTLLTRNYRDHLRGRVRGPGSGGGRGPVPSLQPRARFQRCSGRSLSSCSPQPTDSLVLAPAAPARPAPEGPRAPA [UTS2R] | 2430 ± 120 |  |  |
| MAMTWIVFSLWPLTVFMGHIGGHSLFSCEPITLRMCQDLPYNTTFMPNLLNHYDQQTAALAMEPFHPMVNLDCSRDFRPFLCALYAPICMEYGRVTLPCRRLCQRAYSECSKLMEMFGVPWPEDMECSRFPDCDEPYPRLVDLNLAGEPTEGAPVAVQRDYGFWCPRELKIDPDLGYSFLHVRDCSPPCPNMYFRREELSFARYFIGLISIICLSATLFTFLTFLIDVTRFRYPERPIIFYAVCYMMVSLIFFIGFLLEDRVACNASIPAQYKASTVTQGSHNKACTMLFMILYFFTMAGSVWWVILTITWFLAAVPKWGSEAIEKKALLFHASAWGIPGTLTIILLAMNKIEGDNISGVCFVGLYDVDALRYFVLAPLCLYVVVGVSLLLAGIISLNRVRIEIPLEKENQDKLVKFMIRIGVFSILYLVPLLVVIGCYFYEQAYRGIWETTWIQERCREYHIPCPYQVTQMSRPDLILFLMKYLMALIVGIPSVFWVGSKKTCFEWASFFHGRRKKEIVNESRQVLQEPDFAQSLLRDPNTPIIRKSRGTSTQGTSTHASSTQLAMVDDQRSKAGSIHSKVSSYHGSLHRSRDGRYTPCSYRGMEERLPHGSMSRLTDHSRHSSSHRLNEQSRHSSIRDLSNNPMTHITHGTSMNRVIEEDGTSA [FZD3] |  |  | plasma membrane surface immunostaining intensity (GPCR class: F): 177 ± 57 |
| MANFTPVNGSSGNQSVRLVTSSSHNRYETVEMVFIATVTGSLSLVTVVGNILVMLSIKVNRQLQTVNNYFLFSLACADLIIGAFSMNLYTVYIIKGYWPLGAVVCDLWLALDYVVSNASVMNLLIISFDRYFCVTKPLTYPARRTTKMAGLMIAAAWVLSFVLWAPAILFWQFVVGKRTVPDNQCFIQFLSNPAVTFGTAIAAFYLPVVIMTVLYIHISLASRSRVHKHRPEGPKEKKAKTLAFLKSPLMKQSVKKPPPGEAAREELRNGKLEEAPPPALPPPPRPVADKDTSNESSSGSATQNTKERPATELSTTEATTPAMPAPPLQPRALNPASRWSKIQIVTKQTGNECVTAIEIVPATPAGMRPAANVARKFASIARNQVRKKRQMAARERKVTRTIFAILLAFILTWTPYNVMVLVNTFCQSCIPDTVWSIGYWLCYVNSTINPACYALCNATFKKTFRHLLLCQYRNIGTAR [CHRM4] | 952 ± 190 |  |  |
| MANITRMANHTGKLDFILMGLFRRSKHPALLSVVIFVVFLKALSGNAVLILLIHCDAHLHSPMYFFISQLSLMDMAYISVTVPKMLLDQVMGVNKVSAPECGMQMFLYLTLAGSEFFLLATMAYDRYVAICHPLRYPVLMNHRVCLFLASGCWFLGSVDGFMLTPITMSFPFCRSWEIHHFFCEVPAVTILSCSDTSLYETLMYLCCVLMLLIPVTIISSSYLLILLTVHRMNSAEGRKKAFATCSSHLTVVILFYGAAVYTYMLPSSYHTPEKDMMVSVFYTILTPVLNPLIYSLRNKDVMGALKKMLTVRFVL [OR2T5] |  | 121 ± 14 |  |
| MANITRMANHTGRLDFILMGLFRQSKHPALLSVVIFVVFLKALSGNAVLILLIHCDAHLHSPMYFFISQLSLMDMAYISVTVPKMLLDQVMGVNKVSAPECGMQMFLYLTLAGSEFFLLATMAYDRYVAICHPLRYPVLMNHRVCLFLASGCWFLGSVDGFMLTPITMSFPFCRSWEIHHFFCEVPAVTILSCSDTSLYETLMYLCCVLMLLIPVTIISSSYLLILLTVHRMNSAEGRKKAFATCSSHLTVVILFYGAAVYTYMLPSSYHTPEKDMMVSVFYTILTPVLNPLIYSLRNKDVMGALKKMLTVRFVL [OR2T29] |  | 131 ± 21 |  |
| MANSASPEQNQNHCSAINNSIPLMQGNLPTLTLSGKIRVTVTFFLFLLSATFNASFLLKLQKWTQKKEKGKKLSRMKLLLKHLTLANLLETLIVMPLDGMWNITVQWYAGELLCKVLSYLKLFSMYAPAFMMVVISLDRSLAITRPLALKSNSKVGQSMVGLAWILSSVFAGPQLYIFRMIHLADSSGQTKVFSQCVTHCSFSQWWHQAFYNFFTFSCLFIIPLFIMLICNAKIIFTLTRVLHQDPHELQLNQSKNNIPRARLKTLKMTVAFATSFTVCWTPYYVLGIWYWFDPEMLNRLSDPVNHFFFLFAFLNPCFDPLIYGYFSL [GNRHR] | 160 ± 34 |  |  |
| MANVTLVTGFLLMGFSNIQKLRILYGVLFLLIYLAALMSNLLIITLITLDVKLQTPMYFFLKNLSFLDVFLVSVPIPKFIVNNLTHNNSISILGCAFQLLLMTSFSAGEIFILTAMSYDRYVAICCPLNYEVIMNTGVCVLMASVSWAIGGLFGTAYTAGTFSMPFCGSSVIPQFFCDVPSLLRISCSETLMVIYAGIGVGACLSISCFICIVISYIYIFSTVLKIPTTKGQSKAFSTCFPHLTVFTVFIITAYFVYLKPPSNSPSVIDRLLSVIYTVMPPVFNPVTYSLRNNDMKCALIRLLQKTYGQEAYFI [OR14A2] |  | 133 ± 42 |  |
